Measurements: publication doi:10.1101/758714 (bioRxiv, 2019)

Assays:
[1] = biological target: CRY1 photolyase homology region (PHR), residues 1-491 (human) (UniProt Q16526); test: fluorescence polarisation
[2] = biological target: T1, CRY1 photolyase homology region (PHR), residues 1-491 (human, UniProt Q16526 1-491); test: fluorescence polarisation
T1 sequence (looked up): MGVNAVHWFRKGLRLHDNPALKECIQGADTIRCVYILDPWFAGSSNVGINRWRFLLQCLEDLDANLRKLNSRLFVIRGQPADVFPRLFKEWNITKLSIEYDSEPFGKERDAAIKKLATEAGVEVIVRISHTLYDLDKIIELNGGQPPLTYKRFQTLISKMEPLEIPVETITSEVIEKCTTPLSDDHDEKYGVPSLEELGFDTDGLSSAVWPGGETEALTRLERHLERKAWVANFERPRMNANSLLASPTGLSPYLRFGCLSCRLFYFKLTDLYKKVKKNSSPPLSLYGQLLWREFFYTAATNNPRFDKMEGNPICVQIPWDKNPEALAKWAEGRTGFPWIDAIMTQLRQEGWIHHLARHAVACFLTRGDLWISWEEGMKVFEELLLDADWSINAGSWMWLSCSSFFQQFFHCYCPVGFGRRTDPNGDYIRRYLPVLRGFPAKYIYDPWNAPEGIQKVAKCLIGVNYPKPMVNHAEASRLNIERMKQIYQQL

For “Δ11 version of the human CRY1 tail (from UniProt Q16526 492-586) (domain or fragment)”, which fold lower affinity than the hCRY1 tail [1] is on record?
Its fold lower affinity than the hCRY1 tail is 4 fold.

B1: human CRY1 tail (residues 492-586) (domain or fragment, UniProt Q16526 492-586, looked up)
chain: SRYRGLGLLASVPSNPNGNGGFMGYSAENIPGCSSSGSCSQGSGILHYAHGDSQQTHLLKQGRSSMGTGLSGGKRPSQEEDTQSIGPKVQRQSTN
modifications: fluorescein (FAM) on the N-terminus in the FP binding assays
With B1 as the molecule, how does the Kd [2] read?
The Kd was ~5 µM.
